Reference: US20100273186A1, “SPLIT MUTANT HYDROLASE FUSION REPORTER AND USES THEREOF” (Promega Corporation, priority 2007, published 2010)

How the values were obtained:
[1] = Binding of substrate to DhaA mutants
Excerpt: (§1) Carboxytetramethylrhodamine-C10H21NO2—Cl, carboxyfluorescein-C10H21NO2—Cl, and 5-carboxy-X-rhodamine-C10H21NO2—Cl bound to DhaA.H272F but not to DhaA.WT. Biotin-C10H21NO2—Cl bound to DhaA.H272F but not to DhaA.WT.
DhaA.H272 mutants, i.e. H272F/G/A/Q, bound to carboxytetramethylrhodamine-C10H21NO2—Cl.
A control mutant, DhaA.D106Q, single mutants DhaA.D106C, DhaA.D106Y, and DhaA.D106E, as well as double mutants DhaA.D106C:H272F, DhaA.D106E:H272F, DhaA.D106Q:H272F, and DhaA.D106Y:H272F were analyzed for binding to carboxytetramethylrhodamine-C10H21NO2—Cl. Carboxytetramethylrhodamine-C10H21NO2—Cl bound to DhaA.D106C, DhaA.D106C:H272F, DhaA.D106E, and DhaA.H272F. Thus, the bond formed between carboxytetramethylrhodamine-C10H21NO2—Cl and cysteine or glutamate at residue 106 in a mutant DhaA is stable relative to the bond formed between carboxytetramethylrhodamine-C10H21NO2—Cl and DhaA.WT. Other substitutions at position 106 alone or in combination with substitutions at other residues in DhaA may yield similar results. Further, certain substitutions at position 106 alone or in combination with substitutions at other residues in DhaA may result in a mutant DhaA that forms a bond with only certain substrates.

[2] = Binding of substrate to DhaA mutants; remark: listed apart in the source
Excerpt: as §1

[3] = Fluorescence polarization (FP) labeling assay; assay type: binding; details: relative to DhaA.H272F H11YL
Excerpt: Fluorescence polarization (FP) is ideal for the study of small fluorescent ligands binding to proteins. It is unique among methods used to analyze molecular binding because it gives direct nearly instantaneous measure of a substrate bound/free ratio. Therefore, an FP assay was developed as an alternative approach to fluorimage gel analysis of the purified DhaA mutants. […] To place this rate in perspective, approximately 42 and 420-fold more A7 and parental, i.e., DhaA.H272F, protein, respectively, was required in the reaction to obtain measurable rates. Under the labeling conditions used, it is evident that the H11YL mutant was also considerably faster than A7 and parental, DhaA.H272F proteins with the fluorescein-based substrate. However, it appears that labeling of H11YL with carboxyfluorescein-C10H21NO2—Cl is markedly slower than labeling with the corresponding carboxytetramethylrhodamine-C10H21NO2—Cl substrate. Four-fold more H11YL protein was used in the carboxyfluorescein-C10H21NO2—Cl reaction (150 nM) versus the carboxytetramethylrhodamine-C10H21NO2—Cl reaction (35 nM), yet the rate observed appeared to be qualitatively slower than the observed carboxytetramethylrhodamine-C10H21NO2—Cl rate.
Based on the sensitivity and truly homogenous nature of this assay, FP was used to characterize the labeling properties of the purified DhaA mutants with the fluorescently coupled substrates. The data from these studies was then used to calculate a second order rate constant for each DhaA mutant-substrate pair. […] However, in each case labeling was slower with the carboxyfluorescein-C10H21NO2—Cl substrate. All of the first generation DhaA mutants characterized by FP had rates that ranged from 7 to 3555-fold faster than the corresponding parental protein. By far, the biggest impact on labeling rate by a single amino acid substitution occurred with the three replacements at the 273 position (Y273L, Y273M, and Y273C) in the DhaA.H272F background. Nevertheless, in each of the first generation DhaA.H272F mutants tested, labeling with the carboxyfluorescein-C10H21NO2—Cl substrate always occurred at a slower rate (1.6 to 46-fold). […] The H11YL rate constant of 2.2×10^6 M^−1 sec^−1 was nearly identical to the rate constant calculated for a carboxytetramethylrhodamine-coupled biotin/streptavidin interaction. This value is consistent with an on-rate of 5×10^6 M^−1 sec^1 determined for a biotin-streptavidin interaction using surface plasmon resonance analysis (Qureshi et al., 2001). Several of the second generation mutants also had improved rates with the carboxyfluorescein-C10H21NO2—Cl substrate, however, as noted previously, these rates were always slower than with the carboxytetramethylrhodamine-C10H21NO2—Cl substrate. […]

MagneGST-based assay = assay type: binding
Excerpt: An automated MagneGST™-based assay was used to screen the DhaA mutant protein libraries. […] For clones with at least 50% higher activity than the DhaA.H272F parent, the overall hit rate of the libraries examined varied from between 1-3%. Similar screening results were obtained for the DhaA.D106C libraries (data not shown). The hits identified by the initial primary screen were located in the master plates, consolidated, re-grown and reanalyzed using the MagneGST™ assay. Only those DhaA mutants with at least a 2-fold higher signal than the parental control upon reanalysis were chosen for sequence analysis.
The results of these analyses were consistent with protein labeling studies using SDS-PAGE fluorimage gel analysis. In an effort to determine if combinations of the best mutations identified in the DhaA.H272F background were additive, the three mutations at residue 273 were recombined with the DhaA.H272F A7 and DhaA.H272F H11 mutations. In order to distinguish these recombined protein mutants from the mutants identified in round one of screening (first generation), they are referred to as “second generation” DhaA mutants.

| Molecule | binding to carboxytetramethylrhodamine-C10H21NO2—Cl [1] | improvement over the parental clones (MagneGST-based assay) | other results |
| --- | --- | --- | --- |
| DhaA.H272F: DhaA mutant, catalytic triad His272 replaced with Phe (protein, UniProt P0A3G2 1-293, looked up, variant H272F) Haloalkane dehalogenase: MSEIGTGFPFDPHYVEVLGERMHYVDVGPRDGTPVLFLHGNPTSSYLWRNIIPHVAPSHRCIAPDLIGMGKSDKPDLDYFFDDHVRYLDAFIEALGLEEVVLVIHDWGSALGFHWAKRNPERVKGIACMEFIRPIPTWDEWPEFARETFQAFRTADVGRELIIDQNAFIEGALPKCVVRPLTEVEMDHYREPFLKPVDREPLWRFPNELPIAGEPANIVALVEAYMNWLHQSPVPKLLFWGTPGVLIPPAEAARLAESLPNCKTVDIGPGLFYLQEDNPDLIGSEIARWLPAL | bound |  | binding to 5-carboxy-X-rhodamine-C10H21NO2—Cl [2]: bound; binding to Biotin-C10H21NO2—Cl [2]: bound; binding to carboxyfluorescein-C10H21NO2—Cl [2]: bound; fold more protein required in the reaction to obtain measurable rates [3]: ~420 fold |
| YC: DhaA.H272F based mutant with Y273C (protein, UniProt P0A3G2 1-293, looked up, variant H272F Y273C) Haloalkane dehalogenase: MSEIGTGFPFDPHYVEVLGERMHYVDVGPRDGTPVLFLHGNPTSSYLWRNIIPHVAPSHRCIAPDLIGMGKSDKPDLDYFFDDHVRYLDAFIEALGLEEVVLVIHDWGSALGFHWAKRNPERVKGIACMEFIRPIPTWDEWPEFARETFQAFRTADVGRELIIDQNAFIEGALPKCVVRPLTEVEMDHYREPFLKPVDREPLWRFPNELPIAGEPANIVALVEAYMNWLHQSPVPKLLFWGTPGVLIPPAEAARLAESLPNCKTVDIGPGLFCLQEDNPDLIGSEIARWLPAL |  | significantly improved |  |
| YM: DhaA.H272F based mutant with Y273M (protein, UniProt P0A3G2 1-293, looked up, variant H272F Y273M) Haloalkane dehalogenase: MSEIGTGFPFDPHYVEVLGERMHYVDVGPRDGTPVLFLHGNPTSSYLWRNIIPHVAPSHRCIAPDLIGMGKSDKPDLDYFFDDHVRYLDAFIEALGLEEVVLVIHDWGSALGFHWAKRNPERVKGIACMEFIRPIPTWDEWPEFARETFQAFRTADVGRELIIDQNAFIEGALPKCVVRPLTEVEMDHYREPFLKPVDREPLWRFPNELPIAGEPANIVALVEAYMNWLHQSPVPKLLFWGTPGVLIPPAEAARLAESLPNCKTVDIGPGLFMLQEDNPDLIGSEIARWLPAL |  | significantly improved |  |
| DhaA.D106C: DhaA mutant, Asp106 replaced with Cys (protein, UniProt P0A3G2 1-293, looked up, variant D106C) Haloalkane dehalogenase: MSEIGTGFPFDPHYVEVLGERMHYVDVGPRDGTPVLFLHGNPTSSYLWRNIIPHVAPSHRCIAPDLIGMGKSDKPDLDYFFDDHVRYLDAFIEALGLEEVVLVIHCWGSALGFHWAKRNPERVKGIACMEFIRPIPTWDEWPEFARETFQAFRTADVGRELIIDQNAFIEGALPKCVVRPLTEVEMDHYREPFLKPVDREPLWRFPNELPIAGEPANIVALVEAYMNWLHQSPVPKLLFWGTPGVLIPPAEAARLAESLPNCKTVDIGPGLHYLQEDNPDLIGSEIARWLPAL | bound |  |  |
| YL: DhaA.H272F based mutant with Y273L (protein, UniProt P0A3G2 1-293, looked up, variant H272F Y273L) Haloalkane dehalogenase: MSEIGTGFPFDPHYVEVLGERMHYVDVGPRDGTPVLFLHGNPTSSYLWRNIIPHVAPSHRCIAPDLIGMGKSDKPDLDYFFDDHVRYLDAFIEALGLEEVVLVIHDWGSALGFHWAKRNPERVKGIACMEFIRPIPTWDEWPEFARETFQAFRTADVGRELIIDQNAFIEGALPKCVVRPLTEVEMDHYREPFLKPVDREPLWRFPNELPIAGEPANIVALVEAYMNWLHQSPVPKLLFWGTPGVLIPPAEAARLAESLPNCKTVDIGPGLFLLQEDNPDLIGSEIARWLPAL |  | significantly improved |  |
| DhaA.D106E: DhaA single mutant D106E (protein, UniProt P0A3G2 1-293, looked up, variant D106E) Haloalkane dehalogenase: MSEIGTGFPFDPHYVEVLGERMHYVDVGPRDGTPVLFLHGNPTSSYLWRNIIPHVAPSHRCIAPDLIGMGKSDKPDLDYFFDDHVRYLDAFIEALGLEEVVLVIHEWGSALGFHWAKRNPERVKGIACMEFIRPIPTWDEWPEFARETFQAFRTADVGRELIIDQNAFIEGALPKCVVRPLTEVEMDHYREPFLKPVDREPLWRFPNELPIAGEPANIVALVEAYMNWLHQSPVPKLLFWGTPGVLIPPAEAARLAESLPNCKTVDIGPGLHYLQEDNPDLIGSEIARWLPAL | bound |  |  |
| DhaA.WT: wild type Rhodococcus rhodochrous dehalogenase (DhaA), SEQ ID NO:1 (protein, listed as Rhodococcus rhodochrous) MSEIGTGFPFDPHYVEVLGERMHYVDVGPRDGTPVLFLHGNPTSSYLWRNIIPHVAPSHRCIAPDLIGMGKSDKPDLDYFFDDHVRYLDAFIEALGLEEVVLVIHDWGSALGFHWAKRNPERVKGIACMEFIRPIPTWDEWPEFARETFQAFRTADVGRELIIDQNAFIEGALPKCVVRPLTEVEMDHYREPFLKPVDREPLWRFPNELPIAGEPANIVALVEAYMNWLHQSPVPKLLFWGTPGVLIPPAEAARLAESLPNCKTVDIGPGLHYLQEDNPDLIGSEIARWLPAL | not |  | binding to 5-carboxy-X-rhodamine-C10H21NO2—Cl [2]: not; binding to Biotin-C10H21NO2—Cl [2]: not; binding to carboxyfluorescein-C10H21NO2—Cl [2]: not |
| DhaA.D106C:H272F: DhaA double mutant D106C and H272F (protein, UniProt P0A3G2 1-293, looked up, variant D106C H272F) Haloalkane dehalogenase: MSEIGTGFPFDPHYVEVLGERMHYVDVGPRDGTPVLFLHGNPTSSYLWRNIIPHVAPSHRCIAPDLIGMGKSDKPDLDYFFDDHVRYLDAFIEALGLEEVVLVIHCWGSALGFHWAKRNPERVKGIACMEFIRPIPTWDEWPEFARETFQAFRTADVGRELIIDQNAFIEGALPKCVVRPLTEVEMDHYREPFLKPVDREPLWRFPNELPIAGEPANIVALVEAYMNWLHQSPVPKLLFWGTPGVLIPPAEAARLAESLPNCKTVDIGPGLFYLQEDNPDLIGSEIARWLPAL | bound |  |  |
